The target of test [1] is T1, recombinant VWF-A1 domain polypeptide (amino acids Q1238-P1471) (human, UniProt P04275 1238-1471).
T1 construct: range 1238-1471; Expressed in E. coli with an N-terminal His tag; also called A1 polypeptide; A1 protein; not shown: N-terminal His tag from the vector
Put plainly: inhibition by A2 of binding of A1 domain (0.25 µM) to immobilized fixed platelets (GPIbα), static conditions.

The target of test [2] is T2, multimeric von Willebrand factor purified from plasma or cryoprecipitate (UniProt P04275 764-2813).
T2 construct: mature; Disulfide-linked multimer of many subunits; number of subunits not fixed; Glycosylated; also called VWF; full length VWF
Put plainly: binding of A2 to immobilized full length VWF; half-maximal binding.

For test [3], the target named is T2, multimeric von Willebrand factor …. Put plainly: ELISA, increasing A2 on immobilized plasma VWF, anti-His detection; half-maximal binding. In general terms: ELISA stands for enzyme-linked immunosorbent assay.
Test [4] shares this target. Description: ELISA, A2 on immobilized VWF; apparent KD.
Test [5] addresses T1, recombinant VWF-A1 domain polypeptide …. Description: ELISA, increasing A2 on immobilized A1 polypeptide, Anti-A2 detection; half-maximal binding.
The target of test [6] is T3, immobilized human fibrinogen (human, UniProt P02671 20-629; P02675 31-491; P02679 27-437, limits assumed).
T3 sequence (looked up) 1: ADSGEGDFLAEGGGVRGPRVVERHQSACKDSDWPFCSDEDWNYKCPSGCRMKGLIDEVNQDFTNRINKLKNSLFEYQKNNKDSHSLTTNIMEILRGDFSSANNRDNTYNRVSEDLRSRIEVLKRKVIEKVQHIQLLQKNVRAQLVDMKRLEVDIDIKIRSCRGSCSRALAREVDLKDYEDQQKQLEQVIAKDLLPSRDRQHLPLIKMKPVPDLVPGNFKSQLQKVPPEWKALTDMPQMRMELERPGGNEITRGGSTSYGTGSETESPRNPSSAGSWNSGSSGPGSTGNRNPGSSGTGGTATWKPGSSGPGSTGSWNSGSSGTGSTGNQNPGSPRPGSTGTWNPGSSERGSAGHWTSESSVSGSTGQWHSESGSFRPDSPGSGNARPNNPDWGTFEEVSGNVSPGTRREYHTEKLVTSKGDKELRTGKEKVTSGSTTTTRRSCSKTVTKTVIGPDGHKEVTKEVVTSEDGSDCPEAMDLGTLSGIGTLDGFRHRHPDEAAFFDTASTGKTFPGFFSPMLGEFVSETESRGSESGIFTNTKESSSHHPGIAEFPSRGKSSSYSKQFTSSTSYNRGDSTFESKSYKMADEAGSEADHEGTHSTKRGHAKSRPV
T3 sequence (looked up) 2: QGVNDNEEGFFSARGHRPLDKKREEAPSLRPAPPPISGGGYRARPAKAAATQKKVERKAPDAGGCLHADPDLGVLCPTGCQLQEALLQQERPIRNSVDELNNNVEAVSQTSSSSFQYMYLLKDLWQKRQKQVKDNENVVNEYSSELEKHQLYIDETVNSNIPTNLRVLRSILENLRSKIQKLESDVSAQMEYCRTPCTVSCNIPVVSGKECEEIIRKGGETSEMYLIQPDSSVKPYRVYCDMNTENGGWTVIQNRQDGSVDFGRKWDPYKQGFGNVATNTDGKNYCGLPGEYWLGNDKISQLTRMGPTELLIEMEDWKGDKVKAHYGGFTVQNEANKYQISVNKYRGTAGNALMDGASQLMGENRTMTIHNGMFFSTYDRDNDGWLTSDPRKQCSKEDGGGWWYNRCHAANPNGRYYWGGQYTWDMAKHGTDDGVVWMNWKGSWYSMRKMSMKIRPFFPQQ
T3 sequence (looked up) 3: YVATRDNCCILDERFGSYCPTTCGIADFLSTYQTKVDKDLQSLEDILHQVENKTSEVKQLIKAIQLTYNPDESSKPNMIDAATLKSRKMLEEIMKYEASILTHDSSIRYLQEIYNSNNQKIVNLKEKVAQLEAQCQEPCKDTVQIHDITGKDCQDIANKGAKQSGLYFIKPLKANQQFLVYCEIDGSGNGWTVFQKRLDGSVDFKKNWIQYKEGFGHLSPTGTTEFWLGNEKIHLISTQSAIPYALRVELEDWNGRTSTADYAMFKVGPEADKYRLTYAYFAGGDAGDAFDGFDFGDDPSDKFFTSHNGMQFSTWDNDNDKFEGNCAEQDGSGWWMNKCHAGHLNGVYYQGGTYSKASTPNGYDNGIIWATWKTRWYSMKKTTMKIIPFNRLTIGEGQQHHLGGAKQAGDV
Put plainly: ELISA, increasing A2 on immobilized human fibrin(ogen), anti-His detection; half-maximal binding.

The target of test [7] is T2, multimeric von Willebrand factor …. Put plainly: binding of A2 to full length VWF; half-maximal binding.
Test [8] deals with T1, recombinant VWF-A1 domain polypeptide …. Description: binding of A2 to immobilized A1 domain polypeptide; half-maximal binding.
Test [9] has as its target T4, polymerized human fibrin (human, UniProt P02671 36-629; P02675 45-491; P02679 27-437, limits assumed).
T4 construct: Immobilized polymerized fibrin; preparation not described
T4 sequence (looked up) 1: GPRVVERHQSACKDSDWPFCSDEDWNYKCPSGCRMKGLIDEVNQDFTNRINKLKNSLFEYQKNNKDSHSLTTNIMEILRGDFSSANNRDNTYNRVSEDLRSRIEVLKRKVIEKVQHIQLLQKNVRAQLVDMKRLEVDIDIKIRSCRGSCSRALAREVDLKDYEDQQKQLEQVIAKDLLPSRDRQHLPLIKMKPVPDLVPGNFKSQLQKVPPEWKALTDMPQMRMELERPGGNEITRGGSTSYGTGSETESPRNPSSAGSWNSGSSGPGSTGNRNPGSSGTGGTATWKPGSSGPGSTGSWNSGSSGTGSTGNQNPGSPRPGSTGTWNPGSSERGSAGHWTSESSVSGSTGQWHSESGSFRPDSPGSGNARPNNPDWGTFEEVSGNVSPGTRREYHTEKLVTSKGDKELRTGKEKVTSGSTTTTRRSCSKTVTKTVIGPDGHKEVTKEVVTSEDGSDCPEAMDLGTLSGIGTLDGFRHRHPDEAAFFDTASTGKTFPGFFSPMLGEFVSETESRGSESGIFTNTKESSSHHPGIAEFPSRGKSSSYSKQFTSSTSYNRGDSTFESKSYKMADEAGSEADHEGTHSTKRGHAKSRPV
T4 sequence (looked up) 2: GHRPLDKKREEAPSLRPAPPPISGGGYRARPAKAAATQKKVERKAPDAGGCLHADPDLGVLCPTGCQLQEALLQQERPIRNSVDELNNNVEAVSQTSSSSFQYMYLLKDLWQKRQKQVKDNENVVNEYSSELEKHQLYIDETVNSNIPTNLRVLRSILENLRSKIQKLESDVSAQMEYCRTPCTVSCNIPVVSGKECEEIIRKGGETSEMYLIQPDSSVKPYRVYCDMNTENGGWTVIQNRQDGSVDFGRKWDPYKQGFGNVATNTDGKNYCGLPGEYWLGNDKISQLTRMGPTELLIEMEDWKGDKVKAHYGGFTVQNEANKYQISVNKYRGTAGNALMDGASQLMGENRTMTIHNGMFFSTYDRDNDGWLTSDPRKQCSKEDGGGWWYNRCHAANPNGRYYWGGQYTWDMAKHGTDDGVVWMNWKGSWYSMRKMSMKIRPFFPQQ
T4 sequence (looked up) 3: T3 sequence (looked up) 3
Put plainly: ELISA, increasing A2 on immobilized polymerized human fibrin, anti-His detection; half-maximal binding.

The target in test [10] is T1, recombinant VWF-A1 domain polypeptide …. Description: binding of A2 to A1 domain polypeptide; half-maximal binding.
Test [11] has the same target. Put plainly: ELISA, A2 on immobilized A1; apparent KD.
Test [12] deals with T5, recombinant human vimentin (human, UniProt P08670 1-466, limits assumed).
T5 construct: also called immobilized vimentin
T5 sequence (P08670 whole entry): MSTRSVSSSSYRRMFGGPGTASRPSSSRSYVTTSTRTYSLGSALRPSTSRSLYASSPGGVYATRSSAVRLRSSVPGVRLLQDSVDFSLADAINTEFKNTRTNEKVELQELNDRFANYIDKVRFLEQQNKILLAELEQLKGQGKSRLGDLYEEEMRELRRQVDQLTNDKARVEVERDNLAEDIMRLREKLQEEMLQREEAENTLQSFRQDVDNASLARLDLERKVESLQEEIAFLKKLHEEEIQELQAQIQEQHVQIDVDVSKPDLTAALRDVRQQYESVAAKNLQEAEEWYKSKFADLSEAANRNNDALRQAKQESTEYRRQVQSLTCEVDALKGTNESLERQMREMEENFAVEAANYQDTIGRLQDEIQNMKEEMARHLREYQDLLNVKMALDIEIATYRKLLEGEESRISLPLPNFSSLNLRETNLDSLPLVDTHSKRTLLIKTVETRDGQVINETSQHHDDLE
Put plainly: ELISA, A2 on immobilized recombinant human vimentin, detected with Anti-A2 or VP-1.

In test [13] the target is T5, recombinant human vimentin. Description: ELISA, A2 fragments on immobilized vimentin.

B1: recombinant VWF-A2 domain polypeptide (amino acids G1481-R1668) (other)
chain: GLLGVSTLGPKRNSMVLDVAFVLEGSDKIGEADFNRSKEFMEEVIQRMDVGQDSIHVTVLQYSYMVTVEYPFSEAQSKGDILQRVREIRYQGGNRTNTGLALRYLSDHSFLVSQGDREQAPNLVYMVTGNPASDEIKRLPGDIQVVPIGVGPNANVQELERIGWPNAPILIQDFETLPREAPDLVLQR
notes: Expressed in E. coli as a fusion protein with a His tag at the N terminus; monomeric on SDS-PAGE; also called A2 protein; VWF-A2 protein; not shown: N-terminal His tag from the vector
As to B1, in test [1], the IC50 was 300 nM. Moreover, the EC50 in test [2] is 190 nM; in test [3], roughly 200 nM; in [5], roughly 65 nM; in test [6] it was 150 nM; in [7], 160 nM; in test [8], 65 nM. In addition, the EC50 amounted to 150 nM in test [9] and 60 nM in [10]. Moreover, the Kd in [4] was roughly 200 nM; in test [11], roughly 50 nM. The binding result in test [12] is listed as “binds”.

B2: N-terminal fragment polypeptide of A2 (A2 G1481-Y1605) (other)
chain: GLLGVSTLGPKRNSMVLDVAFVLEGSDKIGEADFNRSKEFMEEVIQRMDVGQDSIHVTVLQYSYMVTVEYPFSEAQSKGDILQRVREIRYQGGNRTNTGLALRYLSDHSFLVSQGDREQAPNLVY
notes: Expressed in bacteria; also called N-terminal (half) of the A2 domain of VWF
As to B2, the binding result in test [13] was “binds”.

One may read the IC50 as the midpoint of a concentration-inhibition curve. The EC50 is the concentration at which the effect is half-maximal.

Source of the values: US20090118161A1 (BAYLOR COLLEGE OF MEDICINE, published 2009).
